Data taken from paper PMC7337490, “Molecular basis of MKLP2-dependent Aurora B transport from chromatin to the anaphase central spindle”.

Assays:
Conditions in all cases: protein: recombinant;recombinant;recombinant; tags: N-terminal His (tag cleavage stated for complex);;His6-GST, cleaved by HRV 3C; copies: 1;1;1; label: Alexa 488 on forward strand; blunt
[1] = biological target: survivin;borealin 10-109;INCENP 1-80 (CPI80) (human;human;human, UniProt O15392;Q53HL2;Q9NQS7 1-142;10-109;1-80, ||); test: MST; 100 mM NaCl, 20 mM Tris-HCl pH 7.4, 1 mM DTT, 2 h on ice; MST 0.04 uM duplex, 0.1-200 uM protein; EMSA 0.15 pmol plasmid in 20 ul, 0.8% agarose
Chain of survivin;borealin 10-109;INCENP 1-80 (CPI80) (O15392 whole entry, chain 1 of 3): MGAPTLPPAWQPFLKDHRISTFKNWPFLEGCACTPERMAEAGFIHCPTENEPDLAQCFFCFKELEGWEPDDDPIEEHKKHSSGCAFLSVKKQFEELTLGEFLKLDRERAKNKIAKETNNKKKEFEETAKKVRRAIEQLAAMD
Chain of survivin;borealin 10-109;INCENP 1-80 (CPI80) (Q53HL2 10-109, chain 2 of 3): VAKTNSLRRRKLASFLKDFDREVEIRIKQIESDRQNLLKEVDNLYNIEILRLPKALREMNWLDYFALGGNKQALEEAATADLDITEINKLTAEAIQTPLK
Chain of survivin;borealin 10-109;INCENP 1-80 (CPI80) (Q9NQS7 1-80, chain 3 of 3): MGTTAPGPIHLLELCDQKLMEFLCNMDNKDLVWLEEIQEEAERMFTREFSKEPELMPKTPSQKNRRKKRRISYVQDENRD

[2] = biological target: survivin;borealin 10-109;INCENP 1-80 RRKKRR (CPI80RRKKRR) (human;human;human, UniProt O15392;Q53HL2;Q9NQS7 1-142;10-109;1-80, ||R65A;R66A;K67A;K68A;R69A;R70A); test: MST; up to 200 uM; 100 mM NaCl, 20 mM Tris-HCl pH 7.4, 1 mM DTT, 2 h on ice; MST 0.04 uM duplex, 0.1-200 uM protein; EMSA 0.15 pmol plasmid in 20 ul, 0.8% agarose
Chain of survivin;borealin 10-109;INCENP 1-80 RRKKRR (CPI80RRKKRR) (O15392 whole entry, chain 1 of 3): as the sequence (O15392 whole entry, chain 1 of 3) above
Chain of survivin;borealin 10-109;INCENP 1-80 RRKKRR (CPI80RRKKRR) (Q53HL2 10-109, stated change not applied, chain 2 of 3): as the sequence (Q53HL2 10-109, chain 2 of 3) above
Chain of survivin;borealin 10-109;INCENP 1-80 RRKKRR (CPI80RRKKRR) (Q9NQS7 1-80 R65A/R66A/K67A/K68A/R69A/R70A, chain 3 of 3): as the sequence (Q9NQS7 1-80, chain 3 of 3) above, with R65A, R66A, K67A, K68A, R69A, R70A counted along it

[3] = biological target: survivin;borealin 10-109;INCENP 1-58 (CPI58) (human;human;human, UniProt O15392;Q53HL2;Q9NQS7 1-142;10-109;1-58, ||); test: as above
Chain of survivin;borealin 10-109;INCENP 1-58 (CPI58) (O15392 whole entry, chain 1 of 3): as the sequence (O15392 whole entry, chain 1 of 3) above
Chain of survivin;borealin 10-109;INCENP 1-58 (CPI58) (Q53HL2 10-109, chain 2 of 3): as the sequence (Q53HL2 10-109, chain 2 of 3) above
Chain of survivin;borealin 10-109;INCENP 1-58 (CPI58) (Q9NQS7 1-58, chain 3 of 3): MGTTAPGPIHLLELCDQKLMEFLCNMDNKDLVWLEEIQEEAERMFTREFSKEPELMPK

[4] = biological target: survivin;borealin 10-109;INCENP 1-80 T59E (CPI80T59E) (human;human;human, UniProt O15392;Q53HL2;Q9NQS7 1-142;10-109;1-80, ||T59E); test: MST; Kd not calculable per legend; 100 mM NaCl, 20 mM Tris-HCl pH 7.4, 1 mM DTT, 2 h on ice; MST 0.04 uM duplex, 0.1-200 uM protein; EMSA 0.15 pmol plasmid in 20 ul, 0.8% agarose
Chain of survivin;borealin 10-109;INCENP 1-80 T59E (CPI80T59E) (O15392 whole entry, chain 1 of 3): as the sequence (O15392 whole entry, chain 1 of 3) above
Chain of survivin;borealin 10-109;INCENP 1-80 T59E (CPI80T59E) (Q53HL2 10-109, chain 2 of 3): as the sequence (Q53HL2 10-109, chain 2 of 3) above
Chain of survivin;borealin 10-109;INCENP 1-80 T59E (CPI80T59E) (Q9NQS7 1-80 T59E, chain 3 of 3): as the sequence (Q9NQS7 1-80, chain 3 of 3) above, with T59E counted along it

| Binder | Kd [1] [µM] | binding result [2] | binding result [3] | binding signal [4] |
| --- | --- | --- | --- | --- |
| centromeric alpha-satellite consensus 40 bp (dsDNA) DNA 1: ATTCAACTCACAGAGTTGAACCTTCCTTTTCATAGAGCAG DNA 2: CTGCTCTATGAAAAGGAAGGTTCAACTCTGTGAGTTGAAT | 23.6 ± 1.6 | no binding | no binding | ~2 fold lower affinity than CPI80 |
| non-alpha-satellite 40 bp (dsDNA) DNA 1: ATTCCATGGCACCGTCAAGGCTGAGAACGGGAAGCTTGTC DNA 2: GACAAGCTTCCCGTTCTCAGCCTTGACGGTGCCATGGAAT | 29.7 ± 1.6 | no binding | no binding | ~2 fold lower affinity than CPI80 |
